Measured values from the supplement of paper PMC10126150.
± gives the standard deviation of the averaged measurements.

Tested on: ATP
Assay: switch fluorescence ratio, 500 uM ATP over buffer (Cy3 cluster intensity, sum of 5 cycles each) (fold (ratio)); higher = stronger signal-on switching upon ATP binding; sequences stand for … in TCGTCGGCAGCGTCAGATGTGTATAAGAGACAGTTTTTTTTTTTTTTTTTTTTTTTTT…TC
Settings: aptamer strand: ATP DNA aptamer (quencher-CACCTGGGGGAGTATTGCGGAGGAAGG + anchor), 100 nM annealed; ATP concentration: 500 uM
Method in brief: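 Cy3-labelled switching-strand clusters on a modified Illumina MiSeq flow-cell were annealed to 100 nM quencher-labelled ATP aptamer and imaged first in selection buffer, then after 15 min with 500 uM ATP at 22 °C. NaOH stripping and re-annealing separated each of five buffer/ATP cycles, and clusters outside 100-1000 RFU were excluded. The fluorescence ratio sums target-cycle Cy3 intensity over buffer-cycle Cy3 intensity per cluster and averages it per switch-domain sequence.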
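Note: ATP exposure 15 min at 22 °C before imaging.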

| Sequence | switch fluorescence ratio |
| --- | --- |
| ACTGCCTTCA | 1.52 ± 0.12 |
| ACTGCGGGAC | 1.51 ± 0.69 |
| ACTGCGTGAT | 1.05 ± 0.022 |
| ACTGCTGAAT | 0.99 ± 0.045 |
| ACTGCTGTTT | 0.9834 ± 0.0026 |
| ACTGGAAGTG | 1.03 ± 0.0039 |
| ACTGGACTGT | 1.18 ± 0.026 |
| ACTGGAGGTG | 1.067 ± 0.0038 |
| ACTGGATCCA | 1.01 ± 0.013 |
| ACTGGGCTGT | 1.06 ± 0.062 |
| ACTGGGGGCG | 1.03 ± 0.053 |
| ACTGGGGTCT | 1.01 ± 0.026 |
| ACTGGGGTGT | 1.07 ± 0.0045 |
| ACTGGGTAGA | 1.0278 ± 0.00073 |
| ACTGGGTGAG | 1.02 ± 0.023 |
| ACTGGGTTTT | 1.022 ± 0.0022 |
| ACTGGTATAA | 0.989 ± 0.015 |
| ACTGGTGGTG | 0.97817 ± 0.0005 |
| ACTGGTGTTC | 1.019 ± 0.0094 |
| ACTGTAATCC | 1.16 ± 0.046 |
| ACTGTACACC | 1.46 ± 0.026 |
| ACTGTACCGG | 1.45 ± 0.04 |
| ACTGTGGACA | 1.02 ± 0.016 |
| ACTGTGTACA | 0.9824 ± 0.0024 |
| ACTGTGTTTG | 0.991 ± 0.036 |

| Sequence | switch fluorescence ratio |
| --- | --- |
| ACTGTTCTCG | 1.01 ± 0.046 |
| ACTGTTTTGA | 0.962 ± 0.01 |
| ACTGTTTTTA | 0.9849 ± 0.004 |
| ACTTAAGTTT | 1.01 ± 0.07 |
| ACTTAATGGG | 1.034 ± 0.0014 |
| ACTTACAGGG | 1.171 ± 0.0058 |
| ACTTACTATC | 1.193 ± 0.0046 |
| ACTTACTTT | 1.16 ± 0.021 |
| ACTTAGCGGT | 1.07 ± 0.051 |
| ACTTAGGAGA | 1.01 ± 0.048 |
| ACTTAGGTTG | 1.04 ± 0.017 |
| ACTTATATA | 1.02 ± 0.022 |
| ACTTCAGCGG | 1.07 ± 0.015 |
| ACTTCATTTT | 1.02 ± 0.012 |
| ACTTGAGGGT | 1.05 ± 0.094 |
| ACTTGATCGC | 1.03 ± 0.03 |
| ACTTGGACAT | 1.04 ± 0.018 |
| ACTTGGACGT | 1.05 ± 0.048 |
| ACTTGGCACA | 1.08 ± 0.054 |
| ACTTGGGATG | 0.982 ± 0.037 |
| ACTTGGTACT | 1.02 ± 0.018 |
| ACTTGGTTGT | 0.992 ± 0.013 |
| ACTTGTTTCG | 0.961 ± 0.037 |
| ACTTGTTTGG | 1.01 ± 0.023 |
| ACTTTAGGGT | 1.15 ± 0.12 |

| Sequence | switch fluorescence ratio |
| --- | --- |
| ACTTTAGTTA | 0.9756 ± 0.0025 |
| ACTTTATTCT | 1.04 ± 0.02 |
| ACTTTCTAGC | 1.07 ± 0.029 |
| ACTTTGGGCG | 0.932 ± 0.059 |
| ACTTTGGTTT | 0.993 ± 0.031 |
| ACTTTGTACG | 1.06 ± 0.011 |
| ACTTTGTATT | 0.999 ± 0.013 |
| ACTTTTTCGG | 0.9909 ± 0.006 |
| ACTTTTTGAG | 0.996 ± 0.032 |
| ACTTTTTTGA | 1.005 ± 0.0056 |
| ACTTTTTTTA | 1.022 ± 0.01 |
| AGAAAAAATT | 1 ± 0.017 |
| AGAAAAAGGA | 1.01 ± 0.044 |
| AGAAAAGGGC | 1.026 ± 0.0014 |
| AGAAAATAGT | 1.03 ± 0.032 |
| AGAAAGCCGG | 0.989 ± 0.014 |
| AGAAAGGATG | 1.01 ± 0.032 |
| AGAAAGGGGG | 0.9954 ± 0.0038 |
| AGAAAGTTTT | 0.993 ± 0.025 |
| AGAAATGGGA | 0.987 ± 0.012 |
| AGAAATGTTA | 1.024 ± 0.0063 |
| AGAAATTTTT | 0.998 ± 0.016 |
| AGAACCATCG | 1.05 ± 0.016 |
| AGAACCTAGT | 0.996 ± 0.031 |
| AGAACCTCTT | 1.06 ± 0.033 |

| Sequence | switch fluorescence ratio |
| --- | --- |
| AGAACGAAGG | 0.962 ± 0.015 |
| AGAACGGGGC | 1.02 ± 0.023 |
| AGAACTAGGG | 0.974 ± 0.016 |
| AGAAGAAATC | 1.016 ± 0.008 |
| AGAAGAGGGG | 0.987 ± 0.044 |
| AGAAGCAGG | 1.21 ± 0.26 |
| AGAAGCGACA | 0.994 ± 0.032 |
| AGAAGCTAGT | 0.983 ± 0.044 |
| AGAAGGCTGC | 0.978 ± 0.0071 |
| AGAAGGGACG | 0.973 ± 0.021 |
| AGAAGGGATT | 1.03 ± 0.015 |
| AGAAGTACGC | 1.17 ± 0.1 |
| AGAAGTCGTG | 1.02 ± 0.012 |
| AGAAGTGAGC | 0.978 ± 0.038 |
| AGAAGTTGGA | 1 ± 0.05 |
| AGAAGTTGGT | 1 ± 0.023 |
| AGAAGTTTGG | 0.989 ± 0.012 |
| AGAATAATAG | 1.02 ± 0.026 |
| AGAATACGGA | 1.05 ± 0.018 |
| AGAATAGAGT | 0.97 ± 0.038 |
| AGAATAGGGG | 0.9762 ± 0.0083 |
| AGAATAGGGT | 0.9901 ± 0.0072 |
| AGAATAGTGG | 0.96 ± 0.037 |
| AGAATCAGCA | 1.01 ± 0.019 |
| AGAATCCTG | 0.995 ± 0.043 |

| Sequence | switch fluorescence ratio |
| --- | --- |
| AGAATGAGGT | 0.98 ± 0.03 |
| AGAATGGCAG | 0.991 ± 0.029 |
| AGAATGTAAT | 0.9591 ± 0.0014 |
| AGAATGTATG | 0.994 ± 0.021 |
| AGAATGTTGC | 0.9482 ± 0.0035 |
| AGAATTGAGA | 0.971 ± 0.019 |
| AGAATTTTTG | 0.963 ± 0.075 |
| AGACAACGGC | 1.02 ± 0.03 |
| AGACAAGTGG | 0.957 ± 0.026 |
| AGACACCCCT | 1.17 ± 0.073 |
| AGACAGGAGA | 0.985 ± 0.019 |
| AGACAGTTGG | 0.99 ± 0.025 |
| AGACATGGGT | 1.02 ± 0.033 |
| AGACCGCTTA | 1.15 ± 0.036 |
| AGACGGAATT | 1.049 ± 0.0063 |
| AGACGGGGCT | 0.975 ± 0.017 |
| AGACGGTCGG | 0.975 ± 0.016 |
| AGACGGTCTG | 0.973 ± 0.0098 |
| AGACGTGCAG | 1.022 ± 0.006 |
| AGACGTGCGT | 1.01 ± 0.048 |
| AGACTCGGGT | 1.02 ± 0.0013 |
| AGACTGAGTT | 0.984 ± 0.016 |
| AGACTGCTGG | 0.977 ± 0.018 |
| AGACTGGAGC | 1.06 ± 0.026 |
| AGACTGTCGA | 1 ± 0.012 |

| Sequence | switch fluorescence ratio |
| --- | --- |
| AGAGAAAGTA | 0.98799 ± 0.0004 |
| AGAGAAGACC | 1 ± 0.028 |
| AGAGACAGGG | 1.05 ± 0.032 |
| AGAGACCAGC | 1.07 ± 0.028 |
| AGAGACCTCA | 1.045 ± 0.0027 |
| AGAGACGGGG | 1.02 ± 0.013 |
| AGAGAGACAG | 0.97 ± 0.057 |
| AGAGAGGGTT | 0.986 ± 0.019 |
| AGAGATATTT | 0.992 ± 0.029 |
| AGAGATGTTG | 0.993 ± 0.045 |
| AGAGCAAGGT | 1.08 ± 0.035 |
| AGAGCCTGGG | 1.04 ± 0.02 |
| AGAGCGGTTC | 1.06 ± 0.11 |
| AGAGCGTTCG | 0.998 ± 0.042 |
| AGAGCTGGGG | 0.9849 ± 0.0079 |
| AGAGGAGGGT | 1.01 ± 0.017 |
| AGAGGGAACA | 1.01 ± 0.02 |
| AGAGGGAGTA | 1 ± 0.022 |
| AGAGGGATAG | 1.19 ± 0.37 |
| AGAGGGCATG | 0.987 ± 0.026 |
| AGAGGGCTTT | 0.988 ± 0.032 |
| AGAGGGGAGT | 1.021 ± 0.0016 |
| AGAGGGGATG | 1.02 ± 0.0081 |
| AGAGGGGCCA | 1.01 ± 0.048 |
| AGAGGGGTTT | 0.98 ± 0.03 |

| Sequence | switch fluorescence ratio |
| --- | --- |
| AGAGGTAAGA | 0.9911 ± 0.0084 |
| AGAGGTACAC | 1 ± 0.021 |
| AGAGGTTACG | 0.994 ± 0.046 |
| AGAGGTTAGG | 0.9874 ± 0.0033 |
| AGAGGTTGGG | 0.98 ± 0.04 |
| AGAGGTTTTT | 0.989 ± 0.019 |
| AGAGTACTCG | 1.05 ± 0.0048 |
| AGAGTACTGG | 1.01 ± 0.01 |
| AGAGTATTGC | 1.04 ± 0.16 |
| AGAGTCAGGC | 1.07 ± 0.044 |
| AGAGTCATGG | 1 ± 0.013 |
| AGAGTCTATC | 0.972 ± 0.044 |
| AGAGTGACGA | 1.008 ± 0.0061 |
| AGAGTGCTAC | 1.04 ± 0.027 |
| AGAGTGGTAG | 0.99 ± 0.013 |
| AGAGTGGTCA | 0.988 ± 0.018 |
| AGAGTTGTGA | 1.02 ± 0.012 |
| AGAGTTTTTT | 0.998 ± 0.018 |
| AGATAAACTC | 1.03 ± 0.051 |
| AGATATGTTG | 0.996 ± 0.012 |
| AGATCAGGAT | 1.02 ± 0.012 |
| AGATCCATTT | 0.991 ± 0.055 |
| AGATCGCTTT | 1.02 ± 0.029 |
| AGATCGTGAG | 0.97 ± 0.038 |
| AGATCGTTTT | 0.999 ± 0.012 |

| Sequence | switch fluorescence ratio |
| --- | --- |
| AGATCTATTG | 1.03 ± 0.033 |
| AGATCTGCAT | 1.11 ± 0.019 |
| AGATGACGGG | 0.975 ± 0.033 |
| AGATGAGGGT | 1 ± 0.02 |
| AGATGATGGG | 0.99 ± 0.017 |
| AGATGCCTGA | 0.989 ± 0.035 |
| AGATGGATTA | 1.025 ± 0.0024 |
| AGATGGCATT | 1 ± 0.048 |
| AGATGGGTAT | 0.986 ± 0.011 |
| AGATGTACTA | 1.04 ± 0.043 |
| AGATGTGTCT | 1.02 ± 0.003 |
| AGATGTTCGG | 0.975 ± 0.025 |
| AGATTAGGAC | 0.97145 ± 0.00024 |
| AGATTATAGC | 1.02 ± 0.045 |
| AGATTATGCA | 1.01 ± 0.048 |
| AGATTCATCA | 0.9931 ± 0.0055 |
| AGATTCATGT | 0.988 ± 0.018 |
| AGATTCCGGT | 0.976 ± 0.016 |
| AGATTCTGTT | 0.945 ± 0.022 |
| AGATTGTACG | 1.006 ± 0.0017 |
| AGATTGTATG | 1.01 ± 0.039 |
| AGATTGTCTC | 0.9573 ± 0.0063 |
| AGATTGTGGT | 0.99 ± 0.018 |
| AGATTTATTT | 1.004 ± 0.0097 |
| AGATTTGGCA | 0.988 ± 0.03 |
